± gives the standard deviation.
Assay: protein stability index of a GFP-peptide fusion (GPS, HEK-293T) (PSI 1-6); higher = more stable
[1] = treatment: DMSO, c terminus: a fixed tail appended
[2] = treatment: MLN4924 1 uM, 8 h, c terminus: a fixed tail appended
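Further: 24-mer peptide tiles fused after GFP, lentivirally expressed, FACS-sorted into six equal bins by GFP/DsRed ratio, decoded by Illumina sequencing, PSI is the read-weighted mean bin number.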

Question: What does the source list for SYFSGQGSDTGASLKLASSELERL [JUNB]?
Answer: protein stability index [1]: 4.182 ± 0.04; protein stability index [2]: 4.427 ± 0.038

Question: With DEDELRKSLSELVDDKFGTGTKKV [PSD2] as the sequence, how does the protein stability index [1] read?
Answer: 5.2 ± 0.15

Question: And the protein stability index [2]?
Answer: 5.4 ± 0.21

Question: With GEAQPGLPQEDPSTSQGCAQPQGA [FEM1A] as the sequence, how does the protein stability index [1] read?
Answer: 5.36 ± 0.21

Question: What about the protein stability index [2] of the same sequence?
Answer: 5.51 ± 0.13

Question: What does the source list for ARLTGVNDKMAEYTNSAGVPSLNA [GOSR1]?
Answer: protein stability index [1]: 3.83 ± 0.22; protein stability index [2]: 4.01 ± 0.16

Question: Which results are given for PRLKEDQPWMVIEGIRQTEYTLTG [FSD1]?
Answer: protein stability index [1]: 3.18 ± 0.34; protein stability index [2]: 3.12 ± 0.19

Question: With SGTFAPISDRYSPELRQLVLSLLS [NEK8] as the sequence, how does the protein stability index [1] read?
Answer: 2.12 ± 0.21

Question: What about the protein stability index [2] of the same sequence?
Answer: 2.25 ± 0.38

Question: What does the source list for CQYLMATFVNVYIASFIRGPNPSK [CDS2]?
Answer: protein stability index [1]: 3.67 ± 0.3; protein stability index [2]: 3.4 ± 0.45

Question: What does the source list for FFIESCGAQVPVEGSRRETSITV?
Answer: protein stability index (treatment: DMSO, c terminus: native): 2.56 ± 0.97; protein stability index (treatment: MLN4924 1 uM, 8 h, c terminus: native): 2.29 ± 0.36

Question: For SMPQKFLGDKGLSDTPYDSSASYE [IKZF1], which protein stability index [1] is on record?
Answer: 4.74 ± 0.088

Question: What about the protein stability index [2] of the same sequence?
Answer: 4.73 ± 0.34

Question: Which results are given for NLYSWDDFMELGRSIPDTQLEQVI [ACSBG2]?
Answer: protein stability index [1]: 3.25 ± 0.25; protein stability index [2]: 3.38 ± 0.31

Question: With IGDTSVSYKYTSRYVLKAGQTVTI [LMNB1] as the sequence, how does the protein stability index [1] read?
Answer: 2.49 ± 0.73

Question: What about the protein stability index [2] of the same sequence?
Answer: 2.29 ± 0.5

Question: With SHHHHQSRGACTSHDPQSSRGSRR [KCNA4] as the sequence, how does the protein stability index [1] read?
Answer: 5.11 ± 0.26

Question: And the protein stability index [2]?
Answer: 5.13 ± 0.15

Question: Which results are given for TLSFIVDGQYMGVAFRGLKGKKLY [SPSB1]?
Answer: protein stability index [1]: 2.27 ± 0.46; protein stability index [2]: 2.36 ± 0.36

Question: For QEPQSPQKLNPGFDLAKGNAGKVN [PLAGL1], which protein stability index [1] is on record?
Answer: 5 ± 0.2

Question: And the protein stability index [2]?
Answer: 4.89 ± 0.39

Question: Which results are given for TQDGKEQPELPCAMAMGTPSTTER [PXN]?
Answer: protein stability index [1]: 5.21 ± 0.27; protein stability index [2]: 5.18 ± 0.3

Question: With KRNNFYIKIRPGEFEQFESTIGFK [EPB41L3] as the sequence, how does the protein stability index [1] read?
Answer: 2.12 ± 0.52

Question: What about the protein stability index [2] of the same sequence?
Answer: 2.46 ± 0.24

Question: Which protein stability index [1] does the source give for PGLLGSMALSNHYRSEDLLDVDTA [FBXO3] here?
Answer: 4.24 ± 0.097

Question: And the protein stability index [2]?
Answer: 4.32 ± 0.24

Question: Which protein stability index [1] does the source give for WAMRRSYEAIAKHNQVEAAWLEGR [TRIM35] here?
Answer: 2.37 ± 0.12

Question: And the protein stability index [2]?
Answer: 2.73 ± 0.3

Question: Which protein stability index [1] does the source give for EIQREIGISNALHRLKLRLAIQEM [PPFIA4] here?
Answer: 2.35 ± 0.72

Question: What about the protein stability index [2] of the same sequence?
Answer: 2.3 ± 0.45

Question: For QGPMSQRRENYGVPPRRATISSWR [RBMY1A1], which protein stability index [1] is on record?
Answer: 3.68 ± 0.22

Question: And the protein stability index [2]?
Answer: 3.57 ± 0.36

Question: With VSMEIFFKAWLHNSGTDQEQIHLL [M1AP] as the sequence, how does the protein stability index [1] read?
Answer: 2.41 ± 0.52

Question: What about the protein stability index [2] of the same sequence?
Answer: 2.21 ± 0.27

Question: Which results are given for TDRDEGANGEVTYSFRKLPDTQLL [PCDHGA10]?
Answer: protein stability index [1]: 4.44 ± 0.13; protein stability index [2]: 4.41 ± 0.22

Question: Which results are given for SGLGYIAGSKVKDMAGDWHWALRV [SPNS1]?
Answer: protein stability index [1]: 2.64 ± 0.74; protein stability index [2]: 2.38 ± 0.3

Question: Which protein stability index [1] does the source give for LSPLRAASDPLLSSVSPAVSKASS [TFE3] here?
Answer: 4.47 ± 0.18

Question: And the protein stability index [2]?
Answer: 4.68 ± 0.067

Question: Which results are given for TLVGNVAQDLGLKMTDLLSRRLQL [PCDHGC5]?
Answer: protein stability index [1]: 2.58 ± 0.66; protein stability index [2]: 2.6 ± 0.57

Question: What does the source list for KQRSVCTWGKNKPGIGAVILKRFC [FAN1]?
Answer: protein stability index [1]: 1.99 ± 0.31; protein stability index [2]: 2.02 ± 0.15

Question: Which protein stability index [1] does the source give for ATAVGGGFFLLQLANHTGYIKVDW [FUNDC2] here?
Answer: 3.27 ± 0.8

Question: And the protein stability index [2]?
Answer: 3.08 ± 0.47

Question: Which results are given for ECSYTSADGQRHHSKLLVSGFWGV [DHCR7]?
Answer: protein stability index [1]: 2.09 ± 0.1; protein stability index [2]: 2.17 ± 0.31

Question: With LWSQSYEDSSNQEEEGPSTFPDLE [MAGEA3] as the sequence, how does the protein stability index [1] read?
Answer: 5.26 ± 0.21

Question: What about the protein stability index [2] of the same sequence?
Answer: 5.06 ± 0.14

Question: Which protein stability index [1] does the source give for GQQDLFRVLKAYTLYRPEEGYCQA [TBC1D10A] here?
Answer: 2.03 ± 0.37

Question: And the protein stability index [2]?
Answer: 2.16 ± 0.31

Question: Which results are given for GLLALAIGLWGLAVKGSLGSDLGG [TSPAN10]?
Answer: protein stability index [1]: 4.49 ± 0.53; protein stability index [2]: 3.4 ± 0.37

Question: Which protein stability index [1] does the source give for LYHSVKQGPISTKELADFIRERAT [FCHO1] here?
Answer: 2.35 ± 0.14

Question: What about the protein stability index [2] of the same sequence?
Answer: 2.4 ± 0.29

Question: With CLDPIIYFFLCQPFREILCKKLHI [P2RY14] as the sequence, how does the protein stability index [1] read?
Answer: 2.74 ± 0.2

Question: What about the protein stability index [2] of the same sequence?
Answer: 3.252 ± 0.02

Question: With AEMNRGSNEWKTVVGGAMFFIGFT [COX4I1] as the sequence, how does the protein stability index [1] read?
Answer: 2.95 ± 0.91

Question: What about the protein stability index [2] of the same sequence?
Answer: 3.18 ± 0.44

Question: What does the source list for GSINLLESPQLATLAEDVTAALAK [MAP2]?
Answer: protein stability index [1]: 4.12 ± 0.066; protein stability index [2]: 4.05 ± 0.27

Question: Which results are given for LVQHGVKPQEIVQVEIFSTNPDLY [IQUB]?
Answer: protein stability index [1]: 2.15 ± 0.21; protein stability index [2]: 2.32 ± 0.33
